We go through 1 molecule from article doi:10.1101/805184 (bioRxiv, 2019).

What all share (assay): cryo-EM structure
For series [1], the target named is T1, Swi1 (S. cerevisiae, UniProt P09547 1-1314).
T1 sequence: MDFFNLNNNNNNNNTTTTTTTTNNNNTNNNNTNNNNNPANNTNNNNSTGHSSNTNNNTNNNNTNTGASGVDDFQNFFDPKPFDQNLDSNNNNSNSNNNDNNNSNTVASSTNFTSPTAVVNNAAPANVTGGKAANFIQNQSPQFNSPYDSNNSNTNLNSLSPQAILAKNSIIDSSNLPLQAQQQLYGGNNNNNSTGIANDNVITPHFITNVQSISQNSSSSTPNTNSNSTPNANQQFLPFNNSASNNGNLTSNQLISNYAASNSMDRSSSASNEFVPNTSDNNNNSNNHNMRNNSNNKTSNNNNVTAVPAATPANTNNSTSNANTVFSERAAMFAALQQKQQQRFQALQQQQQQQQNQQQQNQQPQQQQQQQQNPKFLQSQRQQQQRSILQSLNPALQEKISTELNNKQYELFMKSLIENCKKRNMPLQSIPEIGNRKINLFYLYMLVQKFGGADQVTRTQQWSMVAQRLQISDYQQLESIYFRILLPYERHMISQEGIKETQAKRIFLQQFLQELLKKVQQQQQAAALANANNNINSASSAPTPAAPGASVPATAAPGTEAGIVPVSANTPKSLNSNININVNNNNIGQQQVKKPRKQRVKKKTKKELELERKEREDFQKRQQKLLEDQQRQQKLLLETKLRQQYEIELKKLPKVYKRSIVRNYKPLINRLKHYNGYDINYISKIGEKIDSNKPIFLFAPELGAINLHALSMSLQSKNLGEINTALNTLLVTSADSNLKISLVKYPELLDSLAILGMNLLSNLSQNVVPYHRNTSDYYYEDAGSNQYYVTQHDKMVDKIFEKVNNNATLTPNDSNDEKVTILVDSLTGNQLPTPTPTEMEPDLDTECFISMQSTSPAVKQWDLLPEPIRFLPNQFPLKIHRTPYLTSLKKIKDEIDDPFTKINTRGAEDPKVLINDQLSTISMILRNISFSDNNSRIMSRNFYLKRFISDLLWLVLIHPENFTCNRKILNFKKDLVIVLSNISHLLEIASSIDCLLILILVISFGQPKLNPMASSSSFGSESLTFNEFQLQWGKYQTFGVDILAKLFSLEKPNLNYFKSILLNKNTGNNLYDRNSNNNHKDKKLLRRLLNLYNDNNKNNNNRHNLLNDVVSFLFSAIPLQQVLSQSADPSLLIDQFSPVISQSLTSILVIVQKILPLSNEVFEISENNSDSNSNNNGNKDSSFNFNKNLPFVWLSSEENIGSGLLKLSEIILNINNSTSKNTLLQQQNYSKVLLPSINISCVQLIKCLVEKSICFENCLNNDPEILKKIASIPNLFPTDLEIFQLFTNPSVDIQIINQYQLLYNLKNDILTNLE

Series [2] deals with Snf2 (S. cerevisiae, UniProt P22082 1-1703).
The target of series [3] is Snf5 (S. cerevisiae, UniProt P18480 1-905).
Series [4] deals with the molecule itself.

Sequence of Snf2 (P22082 whole entry): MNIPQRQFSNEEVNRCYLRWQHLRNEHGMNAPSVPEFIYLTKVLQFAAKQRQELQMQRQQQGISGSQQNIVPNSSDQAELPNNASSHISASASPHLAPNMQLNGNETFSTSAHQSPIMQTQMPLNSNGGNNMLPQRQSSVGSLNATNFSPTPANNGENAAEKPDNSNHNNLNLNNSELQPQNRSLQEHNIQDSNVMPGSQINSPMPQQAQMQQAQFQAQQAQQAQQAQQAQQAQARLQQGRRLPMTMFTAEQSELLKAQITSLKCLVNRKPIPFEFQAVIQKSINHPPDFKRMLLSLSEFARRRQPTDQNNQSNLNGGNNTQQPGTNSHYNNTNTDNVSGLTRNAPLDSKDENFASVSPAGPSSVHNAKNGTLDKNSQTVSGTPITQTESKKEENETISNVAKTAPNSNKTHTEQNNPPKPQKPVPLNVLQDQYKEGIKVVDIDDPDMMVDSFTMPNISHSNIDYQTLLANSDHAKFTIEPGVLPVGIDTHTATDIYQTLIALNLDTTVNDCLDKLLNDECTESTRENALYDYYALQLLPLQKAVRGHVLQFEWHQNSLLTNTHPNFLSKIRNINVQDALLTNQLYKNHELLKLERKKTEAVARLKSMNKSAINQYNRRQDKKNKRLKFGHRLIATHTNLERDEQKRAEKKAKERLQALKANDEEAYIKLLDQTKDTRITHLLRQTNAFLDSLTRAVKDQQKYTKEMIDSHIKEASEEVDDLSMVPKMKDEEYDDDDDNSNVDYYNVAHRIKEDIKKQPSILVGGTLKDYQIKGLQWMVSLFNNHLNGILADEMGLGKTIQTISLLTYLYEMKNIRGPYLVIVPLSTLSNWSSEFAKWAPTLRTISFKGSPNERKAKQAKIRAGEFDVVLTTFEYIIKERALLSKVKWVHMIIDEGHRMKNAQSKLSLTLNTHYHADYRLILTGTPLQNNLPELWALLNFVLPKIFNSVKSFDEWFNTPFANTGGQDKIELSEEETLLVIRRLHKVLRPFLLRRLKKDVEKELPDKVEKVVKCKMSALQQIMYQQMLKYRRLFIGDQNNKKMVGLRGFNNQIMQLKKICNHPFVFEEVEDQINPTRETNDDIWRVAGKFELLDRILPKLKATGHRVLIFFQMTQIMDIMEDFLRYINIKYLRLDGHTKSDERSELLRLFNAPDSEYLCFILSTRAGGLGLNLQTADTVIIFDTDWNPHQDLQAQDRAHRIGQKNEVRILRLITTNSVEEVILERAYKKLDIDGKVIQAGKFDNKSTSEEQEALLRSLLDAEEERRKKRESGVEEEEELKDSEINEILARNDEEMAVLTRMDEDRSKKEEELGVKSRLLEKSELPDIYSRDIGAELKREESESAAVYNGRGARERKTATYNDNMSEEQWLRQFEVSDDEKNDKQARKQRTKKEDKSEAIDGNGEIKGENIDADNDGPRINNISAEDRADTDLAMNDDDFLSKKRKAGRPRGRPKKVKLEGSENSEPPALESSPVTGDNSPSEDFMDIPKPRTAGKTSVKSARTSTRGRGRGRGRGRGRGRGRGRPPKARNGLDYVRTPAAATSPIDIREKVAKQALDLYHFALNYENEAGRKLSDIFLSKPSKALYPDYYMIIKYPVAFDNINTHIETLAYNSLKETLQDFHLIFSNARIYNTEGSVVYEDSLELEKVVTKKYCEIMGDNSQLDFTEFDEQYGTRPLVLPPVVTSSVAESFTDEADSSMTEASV

B1: Swi3 (natural protein)
chain: MENTLGEGSTVNASVDVDQHGNDNNSDSNANAAVAGVANTDTAGEESQQQDESLKDEATVPNTRDAESEAITVTAKQQPTMQANKLDSQETPSTEESRAQNVFGQDNEDSDNLFGETESSVSNNEANTPSIPTNPVDNENNKPAIKEDSTIQDSNGDVKNMEDVKIQKEEEPENNTVIEGVKEESQPDENTKEMDEVEEDDEDDDQPMISPDNSIFGDTKSESKQLGNTSSVANTPSEIPDAHKAEQEDIIEKTESVDKKVDSGEERNEQEREIMNDHSKSANPKKTTITRVEPETFEIPQAHEIVIPSYSKWFNLEKIHSIEVQSLPEFFTNRIPSKTPEVYMRYRNFMVNSYRLNPNEYFSVTTARRNVSGDAAALFRLHKFLTKWGLINYQVDSKLLPKNIEPPLTSQYSTRHDAPRGLFPFESYKPSVQLPDMAKLKKMMNTSDSESTLYKYLKESKRKYDEITHPPSTTDDENGDKNDNGGKMNNEVSTSTSMTGDANLLEEGETSRPLKKVKILEQIDENWSKEDLQKLLKGIQEFGADWYKVAKNVGNKSPEQCILRFLQLPIEDKFLYGDGNGKGDNDNGLGPLKYAPHLPFSKSENPVLSTIAFLVGLVNPKTVQSMTQRAIQSAESIKSQKEEISDQKPIEHIKEGSEIAISSLGYRSHIFATNEERQMNFLTNELIRLQMEKLDAKLNHLKKLEKFMELERKTLERQQENLLIQRLNFNQNSSKIVNVLSKCLNLISDSNINNSSVAEKEEIRSQIDHFKSMLSKPETLSIGKNPFNKPNIETGENHNGQSISNENDVKPISIEAPQFYRYWSA
Regarding B1, the binding result in series [1], in series [2] and in series [3] was “binds” throughout. The stoichiometry N (commonly a count of units in the complex or per binding partner) in series [4] was 2.
